Measured values published in patent publication US20220119549A1 (TAVOTEK BIOTHERAPEUTICS HONG KONG, published 2022).

Assays:
recombinant human TNFα [1] = target: T1, recombinant human TNFα (human, UniProt P01375 77-233); test: cell-based or functional assay
recombinant human TNFα [2] = target: T1, recombinant human TNFα; test: ELISA, recombinant human TNFα coated at 1 µg/mL, HRP anti-human secondary
Description: In this assay, 1 μg/mL recombinant human TNFα (R&D systems) was coated on an ELISA plate. Increasing concentrations of anti-TNFα shielded antibodies were applied on the plate and their binding to the recombinant human TNFα was detected by HRP-conjugated anti-human secondary antibody.

T1 sequence (P01375 77-233 limits assumed): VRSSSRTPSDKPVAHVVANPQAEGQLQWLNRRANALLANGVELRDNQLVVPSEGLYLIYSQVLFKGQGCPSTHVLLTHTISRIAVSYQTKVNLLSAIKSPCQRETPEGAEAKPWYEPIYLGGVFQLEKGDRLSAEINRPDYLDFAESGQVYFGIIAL

HEK-Blue TNFα reporter assay: potency in blocking TNFα functional activity, fold lower than TAVO167127 (recombinant human TNFα [1]) | fold lower binding affinity than TAVO167127 (recombinant human TNFα [2]) | Binder
~50 fold | ≥ 5 fold | TAVO196197 (antibody, human IgG1, kappa, Undigested; also called anti-TNFα shielded antibody with IGF2-based masking domain; EAC196/EAC197) heavy: GIVEECCFRSCDLALLETYCAGGGGSRPKPVEVWRKGGGGSEVQLVESGGGLVQPGGSLRLSCAASGFDFADYAMHWVRQAPGKGLEWVSAITWNGGHTDYADSVKGRFTISRDNSKNTLYLQMNSLRAEDTAVYYCAKVSYLSTASSLDYWGQGTLVTVSSASTKGPSVFPLAPSSKSTSGGTAALGCLVKDYFPEPVTVSWNSGALTSGVHTFPAVLQSSGLYSLSSVVTVPSSSLGTQTYICNVNHKPSNTKVDKKVEPKSCDKTHTCPPCPAPPAAGPSVFLFPPKPKDTLMISRTPEVTCVVVDVSHEDPEVKFNWYVDGVEVHNAKTKPREEQYNSTYRVVSVLTVLHQDWLNGKEYKCKVSNKALPAPIEKTISKAKGQPREPQVYTLPPSRDELTKNQVSLTCLVKGFYPSDIAVEWESNGQPENNYKTTPPVLDSDGSFLLYSKLTVDKSRWQQGNVFSCSVLHEALHSHYTQKSLSLSPGK light: not shown
~50 fold | ≥ 5 fold | TAVO192193 (antibody, human IgG1, kappa, Undigested; also called anti-TNFα shielded antibody with IGF2-based masking domain; EAC192/EAC193) heavy: GIVEECCFRSCDLALLETYCAGGGGSIPVSLRSGGGGGSEVQLVESGGGLVQPGGSLRLSCAASGFDFADYAMHWVRQAPGKGLEWVSAITWNGGHTDYADSVKGRFTISRDNSKNTLYLQMNSLRAEDTAVYYCAKVSYLSTASSLDYWGQGTLVTVSSASTKGPSVFPLAPSSKSTSGGTAALGCLVKDYFPEPVTVSWNSGALTSGVHTFPAVLQSSGLYSLSSVVTVPSSSLGTQTYICNVNHKPSNTKVDKKVEPKSCDKTHTCPPCPAPPAAGPSVFLFPPKPKDTLMISRTPEVTCVVVDVSHEDPEVKFNWYVDGVEVHNAKTKPREEQYNSTYRVVSVLTVLHQDWLNGKEYKCKVSNKALPAPIEKTISKAKGQPREPQVYTLPPSRDELTKNQVSLTCLVKGFYPSDIAVEWESNGQPENNYKTTPPVLDSDGSFLLYSKLTVDKSRWQQGNVFSCSVLHEALHSHYTQKSLSLSPGK light: not shown
~50 fold | ≥ 5 fold | TAVO198199 (antibody, human IgG1, kappa, also called anti-TNFα shielded antibody with IGF2-based masking domain; EAC198/EAC199) heavy: GIVEECCFRSCDLALLETYCAGGGGSLSGRSDNHGGGGSEVQLVESGGGLVQPGGSLRLSCAASGFDFADYAMHWVRQAPGKGLEWVSAITWNGGHTDYADSVKGRFTISRDNSKNTLYLQMNSLRAEDTAVYYCAKVSYLSTASSLDYWGQGTLVTVSSASTKGPSVFPLAPSSKSTSGGTAALGCLVKDYFPEPVTVSWNSGALTSGVHTFPAVLQSSGLYSLSSVVTVPSSSLGTQTYICNVNHKPSNTKVDKKVEPKSCDKTHTCPPCPAPPAAGPSVFLFPPKPKDTLMISRTPEVTCVVVDVSHEDPEVKFNWYVDGVEVHNAKTKPREEQYNSTYRVVSVLTVLHQDWLNGKEYKCKVSNKALPAPIEKTISKAKGQPREPQVYTLPPSRDELTKNQVSLTCLVKGFYPSDIAVEWESNGQPENNYKTTPPVLDSDGSFLLYSKLTVDKSRWQQGNVFSCSVLHEALHSHYTQKSLSLSPGK light: not shown
~50 fold | ≥ 5 fold | TAVO194195 (antibody, human IgG1, kappa, also called anti-TNFα shielded antibody with IGF2-based masking domain; EAC194/EAC195) heavy: GIVEECCFRSCDLALLETYCAGGGGSGPLGMLSQGGGGSEVQLVESGGGLVQPGGSLRLSCAASGFDFADYAMHWVRQAPGKGLEWVSAITWNGGHTDYADSVKGRFTISRDNSKNTLYLQMNSLRAEDTAVYYCAKVSYLSTASSLDYWGQGTLVTVSSASTKGPSVFPLAPSSKSTSGGTAALGCLVKDYFPEPVTVSWNSGALTSGVHTFPAVLQSSGLYSLSSVVTVPSSSLGTQTYICNVNHKPSNTKVDKKVEPKSCDKTHTCPPCPAPPAAGPSVFLFPPKPKDTLMISRTPEVTCVVVDVSHEDPEVKFNWYVDGVEVHNAKTKPREEQYNSTYRVVSVLTVLHQDWLNGKEYKCKVSNKALPAPIEKTISKAKGQPREPQVYTLPPSRDELTKNQVSLTCLVKGFYPSDIAVEWESNGQPENNYKTTPPVLDSDGSFLLYSKLTVDKSRWQQGNVFSCSVLHEALHSHYTQKSLSLSPGK light: not shown
